These results are taken from PMC7837216, “ISRIB Blunts the Integrated Stress Response by Allosterically Antagonising the Inhibitory Effect of Phosphorylated eIF2 on eIF2B” (Molecular Cell, 2021).

The target of test [1] is human eIF2B decamer, wild type (human) (UniProt Q14232). Briefly: fluorescence polarisation; FAM-ISRIB (2.5-5 nM) bound to eIF2B, displaced by rising eIF2(αP) (0-2.5 μM) or P-eIF2α-NTD (0-40 μM); equilibrium, 30 min at room temperature; 20 mM HEPES-KOH pH 7.4, 150 mM KCl, 2 mM MgCl2, 1 mM TCEP, 0.05 mg/mL BSA, 0.01% Triton X-100; four-parameter log[inhibitor] fit.
For test [2], the target named is biotinylated, phosphorylated N-terminal domain of human eIF2α (human) (UniProt P05198). Kind of test: BLI; biotinylated P-eIF2α-NTD on streptavidin sensors, eIF2B in solution, without ISRIB (DMSO); 30°C; 20 mM HEPES pH 7.4, 150 mM KCl, 2 mM MgCl2, 1 mM TCEP, 0.05 mg/mL BSA, 0.01% Triton X-100; plateau values of 2-phase association fits against eIF2B concentration (9-150 nM).

Test [3] shares this target. Kind of test: BLI; as a3 but with ISRIB (1 μM) in the association and dissociation buffer.

Substance “biotinylated, phosphorylated N-terminal domain of human eIF2α (from UniProt P05198 1-187) (domain or fragment)” came in with an IC50 in test [1] of 3000 nM.

Take “human eIF2B decamer, wild type (from UniProt Q14232 1-305; P49770 1-351; Q9NR50 1-452; Q9UI10 1-523; Q13144 1-721) (complex)”: the figures for the K1/2max in test [2] and in test [3] were 15.2 nM and 29.8 nM, respectively.

Substance “phosphorylated human eIF2 trimer, eIF2(αP) (from UniProt P05198 1-315; P20042 1-333; P41091 1-472) (complex)” had an IC50 in test [1] of 250 nM.
